What all share (assay): two-hybrid library CCNG1;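 further: natural log of median RNA to DNA barcode read ratio; higher means stronger binding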
One assay concerns the target T1, 4H754-bN.
T1 chain: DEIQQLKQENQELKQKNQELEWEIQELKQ

The target in the next assay is T2, 4H2627-bN.
T2 chain: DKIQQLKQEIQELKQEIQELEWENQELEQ

The next assay has as its target T3, 4H953-bN.
T3 chain: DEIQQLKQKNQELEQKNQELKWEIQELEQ

In the next assay the target is T4, 4H3427-bN.
T4 chain: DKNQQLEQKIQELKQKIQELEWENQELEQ

Another assay addresses T5, 4H170-bN.
T5 chain: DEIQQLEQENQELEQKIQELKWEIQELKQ

In the next assay the target is T6, 4H968-bN.
T6 chain: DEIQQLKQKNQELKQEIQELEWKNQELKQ

The target of the next assay is T7, 4H346-bN.
T7 chain: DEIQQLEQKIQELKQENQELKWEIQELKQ

The target in another assay is T8, 4H2673-bN.
T8 chain: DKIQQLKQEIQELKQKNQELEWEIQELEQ

The target in another assay is T9, 4H797-bN.
T9 chain: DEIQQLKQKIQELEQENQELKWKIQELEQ

For a further assay, the target named is T10, 4H3112-bN.
T10 chain: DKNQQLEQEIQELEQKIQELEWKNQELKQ

A further assay addresses T11, 4H575-bN.
T11 chain: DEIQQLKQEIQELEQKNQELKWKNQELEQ

The target in another assay is T12, 4H4073-bN.
T12 chain: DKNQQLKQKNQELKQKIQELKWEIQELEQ

In another assay the target is T13, 4H1831-bN.
T13 chain: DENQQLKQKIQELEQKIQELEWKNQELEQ

In a further assay the target is T14, 4H918-bN.
T14 chain: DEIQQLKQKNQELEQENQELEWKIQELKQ

In the next assay the target is T15, 4H2702-bN.
T15 chain: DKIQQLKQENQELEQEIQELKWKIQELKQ

For a further assay, the target named is T16, 4H3926-bN.
T16 chain: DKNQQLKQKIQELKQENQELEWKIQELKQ

Another assay has as its target T17, 4H683-bN.
T17 chain: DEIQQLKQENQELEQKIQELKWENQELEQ

The target in a further assay is T18, 4H3010-bN.
T18 chain: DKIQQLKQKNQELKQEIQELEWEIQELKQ

For a further assay, the target named is T19, 4H457-bN.
T19 chain: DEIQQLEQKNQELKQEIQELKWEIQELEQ

The target of another assay is T20, 4H2586-bN.
T20 chain: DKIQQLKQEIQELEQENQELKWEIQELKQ

A further assay has as its target T21, 4H855-bN.
T21 chain: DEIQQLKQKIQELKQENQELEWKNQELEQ

In a further assay the target is T22, 4H780-bN.
T22 chain: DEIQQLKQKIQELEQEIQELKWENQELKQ

As for DEIQQLEQENQELEQKIQELKWEIQELKQ [4H170-bN], the interaction score with 4H754-bN was -0.104; with 4H2627-bN, -1.42; with 4H953-bN, -1.71; in the assay with 4H3427-bN it was -0.458; in the assay with 4H170-bN it was 0.334; with 4H968-bN, 1.15. Besides, the interaction score is -0.772 in the assay with 4H346-bN; -0.742 with 4H2673-bN; -0.668 in the assay with 4H797-bN; 0.507 in the assay with 4H3112-bN; 0.401 in the assay with 4H575-bN; 1.61 in the assay with 4H4073-bN. The interaction score in the assay with 4H1831-bN was -1.26; in the assay with 4H918-bN it was -0.811; with 4H2702-bN, 1.32; in the assay with 4H3926-bN it was 0.153; with 4H683-bN, -0.329; with 4H3010-bN, 2.14. Moreover, the interaction score with 4H457-bN is -0.694; with 4H2586-bN, -1.86; with 4H855-bN, 0.202; in the assay with 4H780-bN, -0.283.

These data come from article PMC10397247.
